Experimental data from the DeepSol protein solubility set.

Experiment: soluble on expression in E. coli; label from the status in PepcDB or PDB records

Row | Sequence | soluble on expression in E. coli
1 | MQALGLIETRGLLPAIECADVMLKTAQVELVGRDFVGGGLVTISVTGDVGAVKAAVEAGAAAVEKISPLLLVSQHVIPRPHQEIEGMIGPSPAAKQAPPVPQPEKVKALPGFDQTTNKQTIDDFVQEFGLEPCVDALKTLPVLKLRNLAREYKGLAIAGRAISKANKEDLIQQLKEYYNQKHE | not soluble
2 | MQAPVVTETCQTNEEGEQLVLRLRAPVERPRVTWGAGVIDNEHMGRLKSNCCCIYTPPRVWDDPSTWEPEEHETEHCRGHTLPEKKQKPQGGHGSDKDEDKGNCGCDHC | not soluble
3 | MQARQPTVAPFDTAKLDRLMEEAGIDVIAATSKHNTQYLMGGYKFIFFAAMDAIGHSRYLPMVIYEKGAPDHSAYVGNRMEGAEHQNNPFWTPAVHTATWGTQDAAGLAVEHLKKIGKASGRIGIEPAFLPSDARDLLASRLDGARFVDATHVLERLRAVKTADELAKLRRASELITDSMLATIAAARAGSTKLEIIEQLRREETNRGLHFEYCLLTLGASHNRAGSPQAWAEGEILSIDSGGNYHGYIGDLCRMGVLGEPDAELEDLLAEVERIQQAAFAKVRAGVLGSEMIVAAEAELKASPSAAFTDFFCHGMGLITHEAPFLMTNHPVAYEGIDADKPLEAGNVISVETTMLHPKRGFIKLEDTLAITDKGYEMFGDRGRGWNRGGVLEHHHHHH | not soluble
4 | MQCALYDAGRCRSCQWITQPIPEQLSAKTADLKNLLADFPVEEWCAPVSGPEQGFRNKAKMVVSGSVEKTLLGMLHRDGTPEDLCDCPLYPASFAPVFAALKPFIARAGLTPYNVARKRGELKYILLTESQSDGGMMLRFVLRSDTKLAQLRKALPWLHEQLPQLKVITVNIQPVHMAIMEGETEIYLTEQQALAERFNDVPLWIRPQSFFQTNPAVASQLYATARDWVRQLPVKHMWDLFCGVGGFGLHCATPDMQLTGIEIAPEAIACAKQSAAELGLTRLQFQALDSTQFATAQGEVPELVLVNPPRRGIGKPLCDYLSTMAPRFIIYSSCNAQTMAKDIRELPGYRIERVQLFDMFPHTAHYEVLTLLVKQ | not soluble
5 | MQDVFIIGSRGLPAKYGGFETFVEELISHQSSKNIRYHVACLSDTKHKVHFDYKGADCFYLNPPKLGPARVIAYDMMAITYALSYSDQHQIQNPIFYVLGNTVGAFIAPFVKQIHNRGGRFFINPDGLEWKRSKWSRPVQAYLKFSEKQMTRQADLVISDNIGIDRYLKQVYPWSKTCFIAYGTQTQPSRLATADSKVRAYFQTFDIREKDYYLILGRFVPENNYETAIKEFMASSTKRDLVIICNHEGNAYFKQLLAETECDKDPRIKFVGTLYDKELLAYIREQAYAYIHGHEVGGTNPGLLEALAHTNLNLVLGVDFNQSVAKSAALYWTKQKGQLAELINQVDAGFDSDHLGKEAKAIIQEHYTWEKIVGEYEALFLNEH | not soluble
6 | MQEIEQRIYLAATYDTKGEEAEYLRQLLRRDGVMVVTVDVATSGQGSPAMVSAQEVAACYPQGAQAVFTGERGSAIVAMALAFERYLAGQRDVGAVLGIGGSGGTALVTPAMRALPVGVPKLMVSTMASGNVAPYVGPSDIAMMYSVTDVAGLNRISRRVLANAAGAIAGAFRQARQPIADDGRPAVGITMFGVTTPCVQHVTAALHDRYDCLVFHATGTGGQSMEKLADSGLLAGVLDLTTTEVCDFLFGGVLACTDDRFGAIARSGVPYVGSCGALDMVNFGALDTVPAACRERLLYPHNPQVTLMRTTAQENARQGAWIAERLNRCEGQVRFLIPEGGVSALDAPGQAFYDEAADAALFQALYDHVRQTDRRRLVRVPCHINDPLFARAAVEQFHEISQ | not soluble
7 | MQEKSKMDCHGGISGTIYEYGALTIDGEEYIPFKQYAGKYVLFVNVASYGGLTGQYIELNALQEELAPFGLVILGFPCNQFGKQEPGENSEILPTLKYVRPGGGFVPNFQLFEKGDVNGEKEQKFYTFLKNSCPPTSELLGTSDRLFWEPMKVHDIRWNFEKFLVGPDGIPIMRWHHRTTVSNVKMDILSYMRRQAALGVAENLYFQ | soluble
8 | MQERVFHVASPKAKLYSEADQAIRERLKDFPKALRAYEMLVQDPEARSGWNMANYLTMRKLGYNDHGRVHALLTGAASVAILALLSEAGVRLDTVESGAGELEDAYVVVLLSTMLHDLGNQVHRFGHEAFGVVLALPILNRILDKLYPDPEQRTAIRALILHGIYSHDLSPEPLTIEAGITAVADGTDITKGRGRKAFQLGSIDIHSISALAVDEVRILKGEKVPVEIQVTMNNSAGIFQVEETLTKKVLKSPLRPYVTVVAMTDGEGGQDQRIVHRVRLHETEDRFVLD | soluble
